According to patent publication US6403765B1, “Truncated Apaf-1 and methods of use thereof” (Thomas Jefferson University, priority 1998, dated 2002):
Substitutions are numbered along the chain they refer to. Names may count otherwise. One block for each molecule: values may come before it.

Legend:
[1] = system: MCF-7 cells; assay: Induction of apoptosis in MCF-7 cells transfected with procaspase-9 variants; type: cell-based; details: overexpression, 30 hours after transfection, FIG. 10
Description: (§1) To express the caspases or truncated Apaf-1 in mammalian cells and assay their apoptotic activity, they were amplified with the T7-tag primer and reverse primers using the pET28a constructs as templates, and subcloned into the mammalian double expression vector pRSC-LacZ (MacFarlane et al., J. Biol. Chem., 272:25417-25420, 1997; Tsang et al., Bio/Technology, 22:68, 1997) or as previously described (Li et al., Cell 91:479-489, 1997; Srinivasula et al., J. Biol. Chem., 272:18452-18545, 1997). This vector allows the expression of lacZ under the Rous Sarcoma virus promoter, and the test cDNA under the CMV promoter. To assay for apoptosis, MCF-7 or 293 cells were transfected, using the method commercially available as the Lipofect Amine method (Life Technologies, Inc.), with the pRSC-LacZ constructs in the presence or absence of different apoptosis-inhibitors. 30 h after transfection cells were stained with β-galactosidase and examined for morphological signs of apoptosis. The percentage of round blue apoptotic cells (mean±SD) were determined by phase contrast microscopy and then represented as a function of total blue cells under each condition (n≧3).
In FIG. 10, mammalian expression constructs encoding Fc or the procaspase-9 variants described in FIG. 9 were transfected into MCF-7 cells together with a reporter β-gal expression construct at a ratio of 3:1. […]

[2] = system: procaspase-9; assay: Autoprocessing of in vitro translated procaspase-9 and Fc-fusion procaspase-9 variants; type: biochemical; details: 35S-labeled, FIG. 9
Description: (§2) ^35S-labeled caspases were obtained by in vitro translation in the presence of ^35S-methionine using a coupled transcription/translation system in rabbit reticulocyte lysate using TNT Kit (Promega) according to the manufacturer's recommendations.
Artificially-induced oligomerization of procaspase-1 or procaspase-8 by overexpression or by heterologous-inducible oligomerization systems causes their autocatalytic processing/activation (Gu et al., EMBO 14:1923-1931, 1995; Muzio et al., J. Biol. Chem. 273:2926-2930, 1998; Yang et al., Mol. Cell 1:319-325, 1998). To test if procaspase-9 can also be activated by heterologous oligomerization, WT and the C287A mutant procaspase-9 was fused to the mouse IgG-Fc portion which can form spontaneous dimers by intermolecular disulfide linkages. FIG. 9 depicts processing of non-fusion WT procaspase-9 (pcasp-9, lane 1) or C-terminal Fc-fusion WT (pcasp-9-Fc, lane 2) or C287A (active site) mutant (pcasp-9-C287A-Fc, lane 3) procaspase-9 which were in vitro translated in the presence of ^35S-methionine and then analyzed by SDS-PAGE and autoradiography.

[3] = system: procaspase-3; assay: Cytochrome c/dATP-dependent processing of procaspase-3 in 293 cellular S100 extract; type: biochemical; details: 293 S100 extract, increasing amounts of purified protein, 1 hour at 30° C., dose-dependent, FIG. 18
Experimental: (§3) To confirm this, a time course analysis of procaspase-9 and procaspase-3 processing was performed in cellular S100 extracts from 293 and MCF-7 cells. […] At the indicated times the reactions were stopped and then analyzed by SDS-PAGE and autoradiography (procaspase-9 panels) or Western blot analysis using anti-caspase-3 p20 polyclonal antibody (procaspase-3 panels). Small arrows indicate a non-specific band detected by the anti-caspase-3 antibody.
In FIG. 8, ^35S-labeled procaspase-3, -6 or -7 were incubated with S100 extracts from 293 cells in the presence or absence of cytochrome c/dATP or DEVD-CHO, or both and analyzed by SDS-PAGE followed by autoradiography. However, when DEVD-CHO was included, processing of procaspase-6 (lane 6), but not procaspase-3 (lane 3) or -7 (lane 9) was inhibited. […] Also, since caspase-7 cannot process procaspase-6 (Srinivasula et al., J. Biol. Chem. 271:27099-27106, 1996), caspase-3 is the one responsible for processing of procaspase-6 in the cytochrome c plus dATP-dependent pathway.
(§4) In FIG. 18, 293 cellular S100 extracts supplemented with ^35S-labeled procaspase-9 (upper panel) or procaspase-3 (lower panel) were incubated with (lanes 3-7) or without (lane 2) cytochrome c plus dATP in the presence of increasing amounts of purified recombinant procaspase-9-C287A mutant for 1 hour at 30° C. and then analyzed by SDS-PAGE and autoradiography. […] Consequently, the Apaf-1/caspase-9 pathway appears to be a central apoptotic pathway, on which most apoptotic signals converge.

[4] = system: MCF-7 cells; assay: Inhibition of apoptosis in transfected MCF-7 cells; type: cell-based; details: apoptosis induced by UV, Fas agonist antibody
Description: as §1

[5] = system: apoptosis induced by the proapoptotic members of the Bcl-2 family; details: Hegde et al. 1998; Li et al. 1997; cited from earlier work
[6] = system: procaspase-9; assay: Cytochrome c/dATP-dependent processing of procaspase-9 in 293 cellular S100 extract; type: biochemical; details: 293 S100 extract, increasing amounts of purified protein, 1 hour at 30° C., dose-dependent, FIG. 18
Experimental: To study processing of procaspase-9 in the cytochrome c/Apaf-1-dependent pathway, WT and the Asp to Ala mutants of procaspase-9 were incubated with a cellular S100 extract in the presence or absence of cytochrome c and dATP. […] Samples were then analyzed by SDS-PAGE and autoradiography.
as §3, §4

[7] = target: T1, procaspase-9 (Homo sapiens, UniProt P55211); assay: In vitro caspase 9 activation assay: recombinant Apaf-1 variants incubated with in vitro translated procaspase-9; type: biochemical; details: in vitro reconstituted system, data not shown
T1 construct: schematic representation of full length procaspase-9; made in house; host or cells: coupled in vitro transcription/translation in rabbit reticulocyte lysate (TNT Kit, Promega)
T1 sequence (P55211 1-416): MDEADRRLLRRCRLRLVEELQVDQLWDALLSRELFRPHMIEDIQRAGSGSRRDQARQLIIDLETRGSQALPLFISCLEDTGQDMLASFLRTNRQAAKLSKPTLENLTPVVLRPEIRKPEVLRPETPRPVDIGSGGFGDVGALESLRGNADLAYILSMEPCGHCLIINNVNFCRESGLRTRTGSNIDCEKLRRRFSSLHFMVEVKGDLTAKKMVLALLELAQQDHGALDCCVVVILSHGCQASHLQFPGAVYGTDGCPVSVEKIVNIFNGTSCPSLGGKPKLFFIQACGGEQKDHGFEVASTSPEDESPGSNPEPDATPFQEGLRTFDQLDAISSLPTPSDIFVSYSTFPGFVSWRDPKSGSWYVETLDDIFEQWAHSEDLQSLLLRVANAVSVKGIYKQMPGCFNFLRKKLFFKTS
Experimental: SDS sample buffer was then added to each sample, boiled and subjected to SDS-PAGE analysis followed by autoradiography. In FIG. 2A procaspase-9 was in vitro translated in the presence of ^35S-methionine. Following translation procaspase-9 was desalted by gel filtration through a biospin column (BioRad) to remove unincorporated methionine and free nucleotides. Desalted procaspase-9 was then incubated with 200 ng Ni^2+-affinity purified bacterially expressed recombinant Apaf-530 (WT or K149R mutant) in the presence or absence of cytochrome c or dATP or both for 2 h at 30° C. A mock sample containing Ni^2+-affinity purified material from bacteria transformed with an empty vector was used as a negative control. Following incubation the products were analyzed by SDS-PAGE and autoradiography. In FIG. 2B^35S-labeled procaspase-9 (as described above) was incubated with bacterial lysates containing truncated Apaf-1 variants as indicated and then analyzed as above (2B upper panel). The bacterial lysates were analyzed by SDS-PAGE and immunoblotted with an Apaf-1 antibody which recognizes the N-terminus of Apaf-1 (lanes 2-6) and an anti T7-tag antibody (lanes 7-8) to confirm expression and equivalent concentration of the different Apaf-1 variants (2B lowerpanel). The molecular mass markers are indicated to the right of the lower panel.
as §2
To determine the role of the WD-40 repeat in the mechanism of Apaf-1-induced processing of procaspase-9, truncated Apaf-1 (Apaf-530) lacking its WD-40 repeats (FIG. 1) was expressed and purified. To reconstitute a recombinant caspase-9 activation system, the truncated Apaf-530 was incubated with in vitro translated recombinant procaspase-9 in the presence or absence of cytochrome c and dATP. […] It was previously shown that mutation of CED-4 K165R which is required for nucleotide binding destroys its activity (Chinnaiyan et al., Nature 388:728-729, 1997; Jarnes et al., Curr. Biol. 7:246-252, 1997; Seshagiri and Miller, Curr. Biol. 7:455-460, 1997). […] Therefore, either binding of Apaf-1 to cytochrome c and dATP or deletion of the repeats could induce a conformational change enabling Apaf-1 to bind and process procaspase-9.
In FIG. 3, ^35S-labeled WT or mutant D330A, D315A or C287A mutants of procaspase-9 or prodomainless procaspase-9 (Δpro, residues 134-416) were incubated with buffer (lanes 1, 4, 7, 10, 13), purified Apaf-530 (lanes 2, 5, 8, 11, 14) or mock purified material (lanes, 3, 6, 9, 12, 15) and then analyzed by SDS-PAGE and autoradiography.

self-processing to large subunit (p35) and small subunit [2]: incapable of processing
B1: WT procaspase-9: non-fusion wild type procaspase-9 (protein)
chain: T1 sequence (P55211 1-416)
induction of apoptosis [1]: induced little apoptosis

attenuation of cytochrome c/dATP-induced activation of procaspase-3 [3]: able to attenuate | attenuation of cytochrome c/dATP-induced activation of procaspase-9 [6]: able to attenuate | attenuation of Apaf-530-induced activation of procaspase-9 [7]: A similar result
B2: Caspase-9-DN: dominant negative procaspase-9-C287A mutant (protein)
chain: T1 sequence (P55211 1-416) with C287A
inhibition of apoptosis ([4]; TRAIL, or overexpression of DR4 and DR5, FIG. 17): can also inhibit apoptosis | inhibition of apoptosis ([4]; TRAIL, or overexpression of DR4 and DR5, FIG. 17, listed as dominant negative caspase-9 mutant): as efficient as that observed with Bcl-xL or X-IAP | inhibition of apoptosis induced by the proapoptotic members of the Bcl-2 family [5]: can inhibit apoptosis
